Where “and” joins values, the source holds several entries; their conditions need not be identical. Equal values may be shown once. Read-outs that look alike come from different tables or passages of the source. Blank lines part the entries; values can stand above or below the molecule they belong to. Square brackets hold non-standard residues; d marks the D form. Ends that are not written are not given here. pS = N[C@@H](COP(=O)(O)O)C(=O)O
T1: MAP2c fully phosphorylated by PKA (rat, UniProt P15146-3 1-467, almost complete phosphorylation at Ser184, Thr220, and Ser435)
T1 construct: microtubule-associated protein 2c (MAP2c), rat, 467 residues, UniProt A6KFC7; 15N,13C-labelled for the HNCO experiments; also called MP‐MAP2c; source: MAP2c expressed and purified as described earlier, incubated overnight with PKA at 27 °C, purified on HiTrap SP
T1 sequence (looked up): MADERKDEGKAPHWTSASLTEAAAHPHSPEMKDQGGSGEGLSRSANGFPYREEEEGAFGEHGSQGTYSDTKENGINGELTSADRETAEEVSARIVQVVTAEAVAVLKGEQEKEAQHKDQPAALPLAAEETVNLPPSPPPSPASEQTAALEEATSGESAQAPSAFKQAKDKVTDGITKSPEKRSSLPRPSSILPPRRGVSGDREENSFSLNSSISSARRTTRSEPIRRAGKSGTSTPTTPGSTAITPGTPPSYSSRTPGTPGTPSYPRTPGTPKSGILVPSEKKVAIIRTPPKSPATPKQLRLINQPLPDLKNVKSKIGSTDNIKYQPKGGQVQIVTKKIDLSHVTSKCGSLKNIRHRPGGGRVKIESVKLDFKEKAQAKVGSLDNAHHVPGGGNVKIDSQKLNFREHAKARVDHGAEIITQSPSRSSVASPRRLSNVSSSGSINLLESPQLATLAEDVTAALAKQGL

T2: monomeric 14‐3‐3ζ‐L12E/M78K/C25A/C189A, P63104
T2 chain: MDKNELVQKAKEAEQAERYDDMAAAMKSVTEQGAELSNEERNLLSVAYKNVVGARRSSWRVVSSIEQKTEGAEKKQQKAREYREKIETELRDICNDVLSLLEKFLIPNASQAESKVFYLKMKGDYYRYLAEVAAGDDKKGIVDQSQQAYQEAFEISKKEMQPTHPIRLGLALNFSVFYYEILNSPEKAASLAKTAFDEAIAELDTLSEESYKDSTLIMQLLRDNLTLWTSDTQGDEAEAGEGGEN

T3: MAP2c phosphorylated selectively by PKA at Ser435 (rat, UniProt P15146-3 1-467, phosphoserine at 435)
T3 construct: microtubule-associated protein 2c (MAP2c), rat, 467 residues, UniProt A6KFC7; 15N,13C-labelled for the HNCO experiments; also called SP‐MAP2c; source: MAP2c expressed and purified as described earlier, incubated with PKA for 1 h at 27 °C, purified on HiTrap SP
T3 sequence (looked up): T1 sequence (looked up)

T4: unphosphorylated MAP2c (microtubule associated protein 2c) (rat, UniProt P15146-3 1-467)
T4 construct: microtubule-associated protein 2c (MAP2c), rat, 467 residues, UniProt A6KFC7; 15N,13C-labelled (M9 medium) for the HNCO experiments; also called UP‐MAP2c
T4 sequence (looked up): T1 sequence (looked up)

B1: unphosphorylated MAP2c fragment 300–467 (MTBD and CTD) (domain or fragment, rat, UniProt P15146-3 300-467, looked up)
chain: LRLINQPLPDLKNVKSKIGSTDNIKYQPKGGQVQIVTKKIDLSHVTSKCGSLKNIRHRPGGGRVKIESVKLDFKEKAQAKVGSLDNAHHVPGGGNVKIDSQKLNFREHAKARVDHGAEIITQSPSRSSVASPRRLSNVSSSGSINLLESPQLATLAEDVTAALAKQGL
notes: MAP2c, rat, UniProt A6KFC7, residues 300-467, covering MTBD and CTD; also called UP‐(300–467); source: cloned into pET28a (NcoI, BamHI); expressed and purified by the same protocol as MAP2c
B2: MAP2c fragment 300–467 phosphorylated by PKA on Ser435 (domain or fragment, rat, UniProt P15146-3 300-467, looked up)
chain: B1 chain
modifications: phosphoserine at 435
notes: MAP2c, rat, UniProt A6KFC7, residues 300-467, covering MTBD and CTD; also called SP‐(300–467); source: cloned into pET28a; expressed and purified by the same protocol as MAP2c; incubated overnight with PKA at 27 °C
B3: monomeric 14‐3‐3ζ‐L12E/M78K/C25A/C189A, P63104 1-245 (natural protein)
chain: T2 chain
B4: dimeric pseudo wild‐type 14‐3‐3ζ (14‐3‐3ζ C25A/C189A) (natural protein)
chain: SVDMDKNELVQKAKLAEQAERYDDMAAAMKSVTEQGAELSNEERNLLSVAYKNVVGARRSSWRVVSSIEQKTEGAEKKQQMAREYREKIETELRDICNDVLSLLEKFLIPNASQAESKVFYLKMKGDYYRYLAEVAAGDDKKGIVDQSQQAYQEAFEISKKEMQPTHPIRLGLALNFSVFYYEILNSPEKAASLAKTAFDEAIAELDTLSEESYKDSTLIMQLLRDNLTLWTSDTQGDEAEAGEGGEN
notes: additional residues at the N-terminus; 14-3-3ζ, residues 1-245, UniProt P63104; C25A and C189A count on P63104; The results speak of '230 residues examined' in the crystals, the methods of residues 1-245 plus SVD; also called d14‐3‐3ζ; dimeric 14‐3‐3ζ
B5: MAP2c microtubule binding domain fragment, residues 300–399 (domain or fragment, rat, UniProt P15146-3 300-399, looked up)
chain: LRLINQPLPDLKNVKSKIGSTDNIKYQPKGGQVQIVTKKIDLSHVTSKCGSLKNIRHRPGGGRVKIESVKLDFKEKAQAKVGSLDNAHHVPGGGNVKIDS
notes: MAP2c, rat, UniProt A6KFC7, residues 300-399, containing the MTBD; also called UP‐(300–399); MTBD; source: cloned into pET28a (NcoI, BamHI); expressed in M9 medium (15N,13C) and purified by the same protocol as MAP2c
B6: peptide corresponding to residues 333–362 of MAP2c (peptide)
peptide: QIVTKKIDLSHVTSKCGSLKNIRHRPGGGR
notes: source: synthetic peptide, ordered from Clonestar
B7: phosphopeptide corresponding to residues 432–439 of MAP2c (peptide)
peptide: RRL[pS]NVSS
notes: as for B6

Key:
[1] = target: MAP2c phosphorylated selectively by PKA at Ser435 (rat) (UniProt P15146); assay: NMR titration; 31P 1D NMR; 60 μM SP-MAP2c or MP-MAP2c with 12.5-300 μM d14-3-3ζ or 12.5-200 μM m14-3-3ζ; chemical shift changes fitted; apparent KD
[2] = target: MAP2c phosphorylated selectively by PKA at Ser435 (rat) (UniProt P15146); assay: ITC; 14-3-3ζ (d: 2.9-3 mM; m: 1.5 mM) injected into the cell with 90 μM MAP2c or 220 μM fragment 300-467; 27 °C; 50 mM MOPS, 100 mM NaCl, 4 mM β-mercaptoethanol; one set of sites; apparent KD
[3] = target: unphosphorylated MAP2c (microtubule associated protein 2c) (rat) (UniProt P15146); assay: cross-linking; DSBU (200 μM) cross-linking, SDS/PAGE and LC-MS/MS; 20 μM UP-/MP-MAP2c with 80 μM d14-3-3ζ or m14-3-3ζ, or 80 μM d14-3-3ζ with 100 or 400 μM UP-(333-362); PBS, 1 mM TCEP, 37 °C
[4] = target: T1, MAP2c fully phosphorylated by PKA; assay: as above
[5] = target: T1, MAP2c fully phosphorylated by PKA; assay: ITC; 14-3-3ζ (d: 2.9-3 mM; m: 1.5 mM) injected into the cell with 90 μM MAP2c or 220 μM fragment 300-467; 27 °C; 50 mM MOPS, 100 mM NaCl, 4 mM β-mercaptoethanol; one set of sites; apparent KD
[6] = target: B4; assay: as above; conditions: both partners purified
[7] = target: T2, monomeric 14‐3‐3ζ‐L12E/M78K/C25A/C189A, …; assay: ITC; free m14-3-3ζ titrated into ITC buffer; heat of dissociation; dimer to monomers; conditions: remark: other sources report otherwise
[8] = target: T2, monomeric 14‐3‐3ζ‐L12E/M78K/C25A/C189A, …; assay: native gel or EMSA; native PAGE; 100 μM d14-3-3ζ or m14-3-3ζ with 0-400 μM MP-MAP2c, 15 min at room temperature; 10% gel, 25 mM Tris, 192 mM glycine, 4 °C; conditions: remark: other sources report otherwise
[9] = target: T3, MAP2c phosphorylated selectively by PKA …; assay: NMR titration; 31P 1D NMR; 60 μM SP-MAP2c or MP-MAP2c with 12.5-300 μM d14-3-3ζ or 12.5-200 μM m14-3-3ζ; chemical shift changes fitted; apparent KD; conditions: both partners purified
[10] = target: T4, unphosphorylated MAP2c (microtubule …); assay: cross-linking; DSBU (200 μM) cross-linking, SDS/PAGE and LC-MS/MS; 20 μM UP-/MP-MAP2c with 80 μM d14-3-3ζ or m14-3-3ζ, or 80 μM d14-3-3ζ with 100 or 400 μM UP-(333-362); PBS, 1 mM TCEP, 37 °C; conditions: both partners purified
[11] = target: the molecule itself; assay: as above
[12] = target: T4, unphosphorylated MAP2c (microtubule …); assay: ITC; 14-3-3ζ (d: 2.9-3 mM; m: 1.5 mM) injected into the cell with 90 μM MAP2c or 220 μM fragment 300-467; 27 °C; 50 mM MOPS, 100 mM NaCl, 4 mM β-mercaptoethanol; one set of sites; apparent KD; conditions: both partners purified
[13] = target: T3, MAP2c phosphorylated selectively by PKA …; assay: as above; conditions: both partners purified
[14] = target: B4; assay: NMR titration; 3D HNCO peak broadening; 350 μM 15N,13C-UP-(300-399) with 350 μM d14-3-3ζ; 27 °C; NMR buffer; conditions: both partners purified
[15] = target: B4; assay: ITC; 3 mM d14-3-3ζ injected into 160 μM SP-(432-439) or 150 μM UP-(333-362); 27 °C; 50 mM MOPS, 100 mM NaCl, 4 mM β-mercaptoethanol; n set to one in the fit; conditions: both partners purified

- Kd [1]: 133 µM
- Kd [2]: 102 µM
- dH [2]: 2.49 kcal/mol
- stoichiometry N [2]: 1.51
- stoichiometry N [3]: 2
- stoichiometry N [4]: 2
- Kd [5]: 17 µM
- dH [5]: 0.765 kcal/mol
- stoichiometry N [5]: 1.31
Molecule: monomeric 14‐3‐3ζ‐L12E/M78K/C25A/C189A (from UniProt P63104 1-245) (natural protein)

Molecule: B1
- Kd [6]: 56 ± 8 µM

Molecule: B2
- Kd [6]: 24 ± 6 µM

Molecule: B3
- Kd [7]: 600 µM
- percent present as a dimer at 100 μM [8]: 20%

Molecule: B4
- Kd [9]: 7.3 µM and < 15 µM
- stoichiometry N [9]: 2.73 ± 0.2
- stoichiometry N [10]: 2
- stoichiometry N ([4]; both partners purified): 2
- binding result [11]: binds
- Kd [12]: 58 ± 6 µM
- dH [12]: 2.72 ± 0.12 kcal/mol
- stoichiometry N [12]: 1.93 ± 0.03
- Kd [13]: 74 ± 21 µM
- dH [13]: 2.08 ± 0.239 kcal/mol
- stoichiometry N [13]: 2.68 ± 0.12
- Kd ([5]; both partners purified): 21 ± 3 µM
- dH ([5]; both partners purified): 1.34 ± 0.0478 kcal/mol
- stoichiometry N ([5]; both partners purified): 1.99 ± 0.04

Molecule: B5
- binding result [14]: binds

Molecule: B6
- Kd [15]: 1800 ± 100 µM

Molecule: B7
- Kd [15]: 3200 ± 400 µM

Source: PMC12001206, “Characterization of multiple binding sites on microtubule associated protein 2c recognized by dimeric and monomeric 14‐3‐3ζ” (The Febs Journal, 2025)
